Here are results for two substances from article PMC2175313.

Data set [1] concerns C.PvuII. In words: competition.
The test system of data set [2] is C.PvuII. Put plainly: EMSA.

Consider WWRR C-box 126-mer (OL intact), for which the binding signal (% loss of shifted WWWW band) in the data set with C.PvuII [1] was found to be 95. As for “WWWW C-box 126-mer (symmetrized, spacer TGTA)”, in the data set with C.PvuII [2], the K half is 200 nM.
